Assay results as given in patent US20140235820A1, “METHODS AND COMPOSITIONS FOR MODULATING THE Wnt PATHWAY” (Genentech, Inc., priority 2010, published 2014).

T1: LRP6 E1E2 Asn185Ser (human, UniProt O75581 20-631)
T1 construct: range 20-631; also called LRP6 E1E2 N185S (analogue of LRP5 BMD mutation Asn198Ser)
T1 sequence (looked up): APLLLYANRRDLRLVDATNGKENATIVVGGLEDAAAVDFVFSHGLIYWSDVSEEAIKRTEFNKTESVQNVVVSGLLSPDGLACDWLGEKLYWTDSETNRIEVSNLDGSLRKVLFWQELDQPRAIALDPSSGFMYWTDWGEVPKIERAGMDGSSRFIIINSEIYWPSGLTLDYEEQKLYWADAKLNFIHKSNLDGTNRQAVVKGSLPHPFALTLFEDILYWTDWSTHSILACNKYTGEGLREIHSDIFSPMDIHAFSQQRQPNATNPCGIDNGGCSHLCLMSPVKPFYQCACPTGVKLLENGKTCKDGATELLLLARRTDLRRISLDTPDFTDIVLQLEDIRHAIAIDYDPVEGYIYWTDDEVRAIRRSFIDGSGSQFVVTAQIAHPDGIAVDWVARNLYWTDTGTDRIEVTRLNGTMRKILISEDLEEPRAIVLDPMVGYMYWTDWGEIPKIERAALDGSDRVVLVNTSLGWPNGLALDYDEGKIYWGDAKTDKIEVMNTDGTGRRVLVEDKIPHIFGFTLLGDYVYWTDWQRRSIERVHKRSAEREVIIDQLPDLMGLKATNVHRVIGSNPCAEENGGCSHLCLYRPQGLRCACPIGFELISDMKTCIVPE

T2: LRP6 E1E2 Arg141Met (human, UniProt O75581 20-631)
T2 construct: range 20-631; also called LRP6 E1E2 R141M
T2 sequence (looked up): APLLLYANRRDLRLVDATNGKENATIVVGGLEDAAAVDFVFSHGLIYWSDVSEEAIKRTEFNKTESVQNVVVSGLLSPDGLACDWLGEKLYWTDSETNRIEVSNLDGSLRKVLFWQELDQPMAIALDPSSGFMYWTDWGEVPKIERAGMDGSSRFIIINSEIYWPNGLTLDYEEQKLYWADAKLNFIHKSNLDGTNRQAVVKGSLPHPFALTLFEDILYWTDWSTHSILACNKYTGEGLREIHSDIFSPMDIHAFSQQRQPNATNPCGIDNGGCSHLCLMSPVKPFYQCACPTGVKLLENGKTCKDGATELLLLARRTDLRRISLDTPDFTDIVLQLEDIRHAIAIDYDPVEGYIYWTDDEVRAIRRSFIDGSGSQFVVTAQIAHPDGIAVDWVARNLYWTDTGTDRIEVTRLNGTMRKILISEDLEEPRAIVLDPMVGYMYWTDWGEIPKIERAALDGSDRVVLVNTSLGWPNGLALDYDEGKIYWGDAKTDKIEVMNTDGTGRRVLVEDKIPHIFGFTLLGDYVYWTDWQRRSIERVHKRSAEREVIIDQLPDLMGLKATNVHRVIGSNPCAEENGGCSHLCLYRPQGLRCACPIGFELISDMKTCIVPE

T3: human LRP6 construct E4 (T933-Q1253) (human, UniProt O75581 933-1253, biotinylated for biolayer interferometry)
T3 construct: range 933-1253; also called LRP6 E4
T3 sequence (looked up): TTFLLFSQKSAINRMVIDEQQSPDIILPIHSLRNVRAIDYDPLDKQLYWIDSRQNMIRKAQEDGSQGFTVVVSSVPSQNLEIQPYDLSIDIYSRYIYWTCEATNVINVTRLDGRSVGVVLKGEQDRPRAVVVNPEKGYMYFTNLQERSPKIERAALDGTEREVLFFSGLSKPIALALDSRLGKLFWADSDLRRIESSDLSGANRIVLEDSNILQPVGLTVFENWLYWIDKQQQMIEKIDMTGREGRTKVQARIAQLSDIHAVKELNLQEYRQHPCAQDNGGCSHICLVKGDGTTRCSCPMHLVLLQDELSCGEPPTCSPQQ

T4: human LRP6 construct E1E2 (amino acids A20-E631) (human, UniProt O75581 20-631, biotinylated for biolayer interferometry)
T4 construct: range 20-631; also called LRP6 E1E2
T4 sequence (looked up): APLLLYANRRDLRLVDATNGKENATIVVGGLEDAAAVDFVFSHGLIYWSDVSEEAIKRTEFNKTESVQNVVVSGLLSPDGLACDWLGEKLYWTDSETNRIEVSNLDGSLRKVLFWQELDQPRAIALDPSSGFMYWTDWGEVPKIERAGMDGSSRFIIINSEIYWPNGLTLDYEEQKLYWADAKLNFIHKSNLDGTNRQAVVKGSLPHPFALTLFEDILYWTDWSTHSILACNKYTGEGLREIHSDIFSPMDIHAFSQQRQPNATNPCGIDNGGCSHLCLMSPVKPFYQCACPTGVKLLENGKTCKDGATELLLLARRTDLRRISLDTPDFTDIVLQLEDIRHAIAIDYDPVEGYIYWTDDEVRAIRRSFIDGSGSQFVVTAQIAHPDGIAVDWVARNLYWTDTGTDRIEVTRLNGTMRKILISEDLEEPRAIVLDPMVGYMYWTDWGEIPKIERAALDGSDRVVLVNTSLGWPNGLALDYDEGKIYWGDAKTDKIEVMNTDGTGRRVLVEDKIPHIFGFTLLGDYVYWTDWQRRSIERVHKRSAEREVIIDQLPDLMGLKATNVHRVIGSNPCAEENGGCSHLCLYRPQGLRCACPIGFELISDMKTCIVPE

T5: human LRP6 construct E3E4 (amino acids E631-Q1253) (human, UniProt O75581 631-1253, biotinylated for biolayer interferometry)
T5 construct: range 631-1253; also called LRP6 E3E4
T5 sequence (looked up): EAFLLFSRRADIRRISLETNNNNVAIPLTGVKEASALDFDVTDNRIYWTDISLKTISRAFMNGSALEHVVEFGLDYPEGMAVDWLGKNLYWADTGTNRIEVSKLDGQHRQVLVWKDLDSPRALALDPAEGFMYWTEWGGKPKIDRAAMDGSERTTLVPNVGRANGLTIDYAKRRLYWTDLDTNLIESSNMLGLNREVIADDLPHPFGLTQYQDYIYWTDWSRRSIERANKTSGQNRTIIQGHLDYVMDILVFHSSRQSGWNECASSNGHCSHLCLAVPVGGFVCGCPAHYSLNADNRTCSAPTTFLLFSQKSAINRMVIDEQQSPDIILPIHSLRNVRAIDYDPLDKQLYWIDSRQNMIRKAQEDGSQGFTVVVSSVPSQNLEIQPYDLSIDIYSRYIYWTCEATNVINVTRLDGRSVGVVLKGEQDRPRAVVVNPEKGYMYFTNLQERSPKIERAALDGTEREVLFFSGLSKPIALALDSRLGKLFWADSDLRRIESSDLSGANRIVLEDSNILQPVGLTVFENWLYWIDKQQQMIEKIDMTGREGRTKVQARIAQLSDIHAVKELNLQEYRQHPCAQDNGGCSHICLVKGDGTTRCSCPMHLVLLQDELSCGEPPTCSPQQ

T6: human LRP6 construct E1 (amino acids A20-D325) (human, UniProt O75581 20-325)
T6 construct: range 20-325; In the Fab crystal E1 arose from E1E2 degraded beyond Arg 335; residues Ala20 to Lys324 were traced; also called LRP6 E1; E1 domain
T6 sequence (looked up): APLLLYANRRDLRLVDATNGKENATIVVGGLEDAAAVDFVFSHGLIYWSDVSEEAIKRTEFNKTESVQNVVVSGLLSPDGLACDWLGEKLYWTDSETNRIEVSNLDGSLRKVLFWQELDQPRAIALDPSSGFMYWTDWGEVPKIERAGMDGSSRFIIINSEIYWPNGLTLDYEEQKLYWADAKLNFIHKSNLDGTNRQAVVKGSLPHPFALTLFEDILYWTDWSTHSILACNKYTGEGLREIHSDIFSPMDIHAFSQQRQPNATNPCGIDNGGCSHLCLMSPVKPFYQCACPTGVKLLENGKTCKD


How the values were obtained:
LRP6 E1E2 Asn185Ser = molecular target: T1, LRP6 E1E2 Asn185Ser; experiment: BLI steady-state affinity
Procedure: (§1) Binding kinetics were measured by biolayer interferometry using an Octet Red instrument (ForteBio) as previously described (11). Streptavidin (SA) biosensors were loaded with biotinylated hLRP6 in 50 mMTris, pH 8, 300 mM NaCl, 5% (v/v) glycerol, and 0.05% (w/v) Triton X-100. The loaded biosensors were washed in the same buffer before carrying out association and dissociation measurements for the indicated times. The Kd of each interaction was determined using steady state-analysis through the Octet Red software v6.3. Each reported value represents an average of three or more experiments at different concentrations, with a fitted experimental curve for which the square of the correlation coefficient (R²) is above 0.96.

LRP6 E1E2 Arg141Met = molecular target: T2, LRP6 E1E2 Arg141Met; experiment: BLI steady-state affinity
Procedure: as §1

[1] = molecular target: T3, human LRP6 construct E4 (T933-Q1253); experiment: BLI, biotinylated LRP6 on streptavidin tips
Procedure: as §1
Purified receptors contained individual β-propeller-EGF-like units (E1, E2, or E4), two β-propellers (E1E2 or E3E4), or four β-propellers (E1E4))—as follows: […]

[2] = molecular target: T4, human LRP6 construct E1E2 (amino acids …); experiment: BLI (Octet Red), biotinylated LRP6 on streptavidin tips, steady state
Procedure: as §1

[3] = molecular target: T5, human LRP6 construct E3E4 (amino acids …); experiment: as above
Procedure: as §1

[4] = molecular target: T6, human LRP6 construct E1 (amino acids …); experiment: synthetic peptides, competition IC50 (FIG. 17A)

Row | fold loss in affinity against wild-type LRP6 E1E2 (LRP6 E1E2 Asn185Ser) | fold loss in affinity against wild-type LRP6 E1E2 (LRP6 E1E2 Arg141Met) | binding result [1] | Kd [2] | Kd [3] | binding result [4] | Binder
1 | 183 fold | 29 fold | no binding | 22 nM | 51 nM |  | Dkk1 (wild type) (ligand, human, UniProt O94907 32-266, looked up, also called Dickkopf 1; human Dkk1) TLNSVLNSNAIKNLPPPLGGAAGHPGSAVSAAPGILYPGGNKYQTIDNYQPYPCAEDEECGTDEYCASPTRGGDAGVQICLACRKRRKRCMRHAMCCPGNYCKNGICVSSDQNHFRGEIEETITESFGNDHSTLDGYSRRTTLSSKMYHTKGQEGSVCLRSSDCASGLCCARHFWSKICKPVLKEGQVCTKHRRKGSHGLEIFQRCYCGEGLSCRIQKDHHQASNSSRLHTCQRH
2 |  |  |  |  |  | no binding | AIKN [Dkk1 peptide lacking three residues from the N-terminus]
3 |  |  |  |  |  | no binding | NSNA [Dkk1 peptide lacking three residues from the C-terminus]
